Data reported in US11957762B2, “Immune tolerant and non-immune tolerant elastin-like recombinant peptides and methods of use” (University of Utah Research Foundation, priority 2015, dated 2024).

Experiments:
[1] = SDS-PAGE analysis of NPs after GSH treatment; format: physicochemical; settings: GSH overnight, non-reducing gels
Protocol: SDS-PAGE was used to analyze responses of the RED-NP, the MS-NP, and the ST-NP to the treatment of 1 mM GSH. 1 mM but not 10 μM of GSH reduced disulfide bonds inside RED-NP. A large fraction of polymers of the RED-NP fusion (iTEPB70-iTEPA28-(G8C)4-pOVA; (SEQ ID NO: 61)) became monomers due to the treatment of 1 mM GSH, showing as a 50-kDa band on the gel. In contrast, GSH had no effect on polymerization status of the fusions of MS-NP and ST-NP. Non-reducing gels and 25 μg of each fusion were used for the analysis.

[2] = Critical micelle concentration by pyrene assay; format: physicochemical; settings: pyrene assay in PBS
Protocol: Measurement of critical micelle concentrations (CMCs) of iTEP-vaccine fusions by pyrene assay. The CMCs of iTEP-vaccine fusions (NPs) were measured through fluorescence spectra by using pyrene as a hydrophobic fluorescent probe as described previously with some adjustments (Ohyanagi et al., Jpn J Clin Oncol, 2011; 41(5); 718-22; Dreher et al., J Am Chem Soc, 2008; 130(2):687-94). Briefly, the fusions were serially 2×time diluted in PBS starting from 250 μM in 96-well black clear-bottom plates. The final volume for each dilution was 150 μL. Three μL of a stock solution of 30 μM pyrene in ethanol was added to each well and mixed well. Fluorescence of these samples were scanned using an Infinite M1000 PRO plate reader (Tecan Trading AG, Switzerland) with the setting: Ex: 334 nm with a slit of 10 nm, Em: ranging 360-400 nm with a slit of 2.5 nm. Four peaks were recorded for pyrene between 360-400 nm. The ratio of emission peak number 1 (I1; 370-373 nm) and emission peak number 3 (I3; 381-384 nm) of pyrene (I1/I3) was plotted as a function of iTEP concentration. The data points were fitted to a sigmoidal-dose response curve, and the CMC was defined as the inflection point of the curve.

DC2.4 cells = assay: Cellular uptake of iTEP-vaccine fusions by DCs; format: cell-based, murine
Protocol: Fluorescent labeling of iTEP-vaccine fusions. For the flow cytometry study, the fusions were labeled with the amine-reactive coumarin, 7-diethylaminocoumarin-3-carboxylic acid, through succinimidyl ester to form blue-fluorescent bioconjugates. For the microscopy-based cellular uptake study and the cellular degradation study, the fusions were labeled with Alexa Fluo 488 5-SDP ester (Alexa-488) to form green-fluorescent bioconjugates. The reactions were performed based on the manufacturer's instructions (Molecular Probes by Life Technologies). Briefly, 10 mg of iTEPs were reacted with 1 mg of coumarin or 0.2 mg of Alexa-488 in 0.1 M sodium bicarbonate buffer, pH 8.3 at a final volume of 1 mL. The reaction was carried out with continuous stirring in the dark and at room temperature for 1.5 h. The protein-dye conjugates were purified using Amicon Ultra1-5 (10k) centrifugal filters (Millipore). The coumarin conjugate was measured for their absorbances of at 205 nm (A205) and 433 nm (A433, λmax for coumarin); the Alexa-488 conjugate was measured at 205 nm and 495 nm (A495, λmax for Alexa-488). The iTEP-vaccine fusion concentrations and the degree of labeling (DOL) were calculated based on these equations: […]
Cellular uptake of iTEP-vaccine fusions. […] The fluorescence of the cells was measured by flow cytometry (collecting 5×10^4 events per sample). […]

[3] = Response of NPs to reductants (DLS after GSH or DTT); format: physicochemical; settings: 16 hours, by number distribution
Protocol: The next set of experiments tested whether disulfide bonds inside the new NP were reducible and if the NP structure was dissolvable in a reductive environment like cytosol (glutathione, GSH 1-10 mM) (Smith et al., Toxicol Appl Pharmacol, 1996; 140(1):1-12; Wu et al., J Nutr, 2004; 134(3):489-92). The new NP and the ST-NP were treated using two concentrations of GSH, at 37° C. overnight and then analyzed particle structure changes of both NPs by DLS. These concentrations mimic GSH concentrations in either cytoplasm (GSH 1-10 mM) or the extracellular (GSH 1-10 μM) environment (Smith et al., Toxicol Appl Pharmacol, 1996; 140(1):1-12; Cantin et al., Appl Physiol (1985), 1987, 63(1):152-7; Jones et al., Clin Chim Acta, 1998; 275(2):175-84). Both NPs were stable at 10 μM of GSH. The new NP lost its particle structure after being treated with 1 mM of GSH (Table 4). […] In contrast, the ST-NP, as a control, maintained its particle structure regardless of its incubation with any concentration of GSH. Similar results emerged when dithiothreitol (DTT) was used as the reductant except that the new iTEP-NP was not stable in 10 μM of DTT (Table 4). […] The new NP was named the reductive-environment dependable NP or RED-NP.

[4] = tested on: endothelial cells (EA.hy926 and bEnd.3) and fibroblasts (3T3); assay: Cellular uptake of iTEP-vaccine fusions by control cells; format: cell-based; settings: 5 μM coumarin-labeled fusions, 4 h
Protocol: Cellular uptake of iTEP-vaccine fusions. DC2.4, EA.hy926, bEnd.3, 3T3 cells were plated at 1.5×10^5/500 μL/well in 24-well plates. When the cells attached to the bottom of the plate (4 h or overnight), the media was replaced with 500 μL of fresh media with or without 5 μM of coumarine labeled iTEP-vaccine fusions. After being cultured for 4 h at 37° C. in 5% CO2, the cells were collected and washed twice with PBS. The fluorescence of the cells was measured by flow cytometry (collecting 5×10^4 events per sample).

Molecule | response to GSH treatment (reduction of disulfide bonds, SDS-PAGE) [1] | CMC (critical micelle concentration) [2] | uptake by DCs, times more than the MS-NP (DC2.4 cells; 5 μM coumarin-labeled fusions, 4 h) | Hydrodynamic diameter (nm) ([3]; DTT 10 μM) | Hydrodynamic diameter (nm) ([3]; DTT 1000 μM) | Hydrodynamic diameter (nm) ([3]; GSH 10 μM) | Hydrodynamic diameter (nm) ([3]; GSH 1000 μM) | Hydrodynamic diameter (nm) ([3]; no reductant (0 μM)) | uptake by endothelial cells and fibroblasts relative to the MS-NP [4] | internalization to DCs (DC2.4 cells; fluorescence microscopy and flow cytometry)
G(GAGVPG)70G(GVLPGVG)28G(ESIINFEKLT)2GG (protein) GGAGVPGGAGVPGGAGVPGGAGVPGGAGVPGGAGVPGGAGVPGGAGVPGGAGVPGGAGVPGGAGVPGGAGVPGGAGVPGGAGVPGGAGVPGGAGVPGGAGVPGGAGVPGGAGVPGGAGVPGGAGVPGGAGVPGGAGVPGGAGVPGGAGVPGGAGVPGGAGVPGGAGVPGGAGVPGGAGVPGGAGVPGGAGVPGGAGVPGGAGVPGGAGVPGGAGVPGGAGVPGGAGVPGGAGVPGGAGVPGGAGVPGGAGVPGGAGVPGGAGVPGGAGVPGGAGVPGGAGVPGGAGVPGGAGVPGGAGVPGGAGVPGGAGVPGGAGVPGGAGVPGGAGVPGGAGVPGGAGVPGGAGVPGGAGVPGGAGVPGGAGVPGGAGVPGGAGVPGGAGVPGGAGVPGGAGVPGGAGVPGGAGVPGGAGVPGGAGVPGGESIINFEKLTESIINFEKLTGG | did not respond to the treatment | 120.6 µM |  |  |  |  |  |  |  | 
ST-NP: stable NP of the fusion iTEPB70-iTEPA56-pOVA (SEQ ID NO: 60) (protein) GGAGVPGGAGVPGGAGVPGGAGVPGGAGVPGGAGVPGGAGVPGGAGVPGGAGVPGGAGVPGGAGVPGGAGVPGGAGVPGGAGVPGGAGVPGGAGVPGGAGVPGGAGVPGGAGVPGGAGVPGGAGVPGGAGVPGGAGVPGGAGVPGGAGVPGGAGVPGGAGVPGGAGVPGGAGVPGGAGVPGGAGVPGGAGVPGGAGVPGGAGVPGGAGVPGGAGVPGGAGVPGGAGVPGGAGVPGGAGVPGGAGVPGGAGVPGGAGVPGGAGVPGGAGVPGGAGVPGGAGVPGGAGVPGGAGVPGGAGVPGGAGVPGGAGVPGGAGVPGGAGVPGGAGVPGGAGVPGGAGVPGGAGVPGGAGVPGGAGVPGGAGVPGGAGVPGGAGVPGGAGVPGGAGVPGGAGVPGGAGVPGGAGVPGGAGVPGGAGVPGGGVLPGVGGVLPGVGGVLPGVGGVLPGVGGVLPGVGGVLPGVGGVLPGVGGVLPGVGGVLPGVGGVLPGVGGVLPGVGGVLPGVGGVLPGVGGVLPGVGGVLPGVGGVLPGVGGVLPGVGGVLPGVGGVLPGVGGVLPGVGGVLPGVGGVLPGVGGVLPGVGGVLPGVGGVLPGVGGVLPGVGGVLPGVGGVLPGVGGGGGGGGGCGGGGGGGGCGGGGGGGGCGGGGGGGGCGESIINFEKLTESIINFEKLTGG | did not respond to the treatment | 23.94 µM | two | 52.56 ± 13.67 (NP) nm | 53.10 ± 13.56 (NP) nm | 52.23 ± 13.59 (NP) nm | 50 ± 13.62 (NP) nm | 54.82 ± 12.89 (NP) nm | either the same amount or less | 
RED-NP: reductive-environment dependable NP, disulfide stabilized fusion iTEPB70-iTEPA28-(G8C)4-pOVA (SEQ ID NO: 61) (protein) GGAGVPGGAGVPGGAGVPGGAGVPGGAGVPGGAGVPGGAGVPGGAGVPGGAGVPGGAGVPGGAGVPGGAGVPGGAGVPGGAGVPGGAGVPGGAGVPGGAGVPGGAGVPGGAGVPGGAGVPGGAGVPGGAGVPGGAGVPGGAGVPGGAGVPGGAGVPGGAGVPGGAGVPGGAGVPGGAGVPGGAGVPGGAGVPGGAGVPGGAGVPGGAGVPGGAGVPGGAGVPGGAGVPGGAGVPGGAGVPGGAGVPGGAGVPGGAGVPGGAGVPGGAGVPGGAGVPGGAGVPGGAGVPGGAGVPGGAGVPGGAGVPGGAGVPGGAGVPGGAGVPGGAGVPGGAGVPGGAGVPGGAGVPGGAGVPGGAGVPGGAGVPGGAGVPGGAGVPGGAGVPGGAGVPGGAGVPGGAGVPGGAGVPGGAGVPGGAGVPGGGVLPGVGGVLPGVGGVLPGVGGVLPGVGGVLPGVGGVLPGVGGVLPGVGGVLPGVGGVLPGVGGVLPGVGGVLPGVGGVLPGVGGVLPGVGGVLPGVGGVLPGVGGVLPGVGGVLPGVGGVLPGVGGVLPGVGGVLPGVGGVLPGVGGVLPGVGGVLPGVGGVLPGVGGVLPGVGGVLPGVGGVLPGVGGVLPGVGGCGCGCGCGESIINFEKLTESIINFEKLTGG | can be reduced by 1 mM but not by 10 μM of GSH |  |  | 8.75 ± 2.03 nm | 6.43 ± 2.01 nm | 37.98 ± 6.72 (NP) nm | 8.35 ± 1.04 nm | 47.11 ± 13.18 (NP) nm |  | as efficient as the ST-NP and more robust than the MS-NP
